# Source: patent US20190169286A1 (Chugai, published 2019)
# B1: H1040/L0442 (antibody, human IgG1, kappa, name in Kabat numbering, V domains shown)
# VH: QVQLVESGGGLVQPGGSLRLSCAASGFTFSEYYLSWVRQAPGKGLEWVGLIRNKDNHHHPEYSASVKGRFTISRDDSKNSLYLTMSDLKTEDTAVYYCARENHRYDVELAYWGQGTLVTVSS
# VL: DIQMTQSPSSLSASVGDRVTITCRASEIIYEYLAWYQQKPGKAPKLLIYKAKTHADGVPSRFSGSGSGTDFTFTISSLQPEDIATYYCKHHFGFPRTFGQGTKVEIKR
# notes: L442 = L395 + S31E
# What was measured:
# human IL-8 [1] = target: T1, human IL-8 (human, UniProt P10145 23-99, limits assumed); assay: SPR Biacore T200, Protein A/G capture, pH 7.4, 40C;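 further: antibodies captured via Protein A/G, which was amine-coupled to a CM4 sensor chip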
# T1 construct: also called hIL-8; hIL8
# Experimental: (§1) An appropriate amount of Protein A/G (PIERCE) was immobilized onto the Sensor chip CM4 (GE Healthcare) by the amine coupling method and the antibodies of interest were captured. […] To regenerate the sensor chip, 25 mM NaOH and 10 mM glycine-HCl (pH 1.5) were used. […] The BIACORE T200 Evaluation Software (GE Healthcare) was used to calculate each parameter.
# human IL-8 [2] = target: T1, human IL-8; assay: SPR Biacore T200, Protein A/G capture, pH 5.8, 37C;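 further: antibodies captured by Protein A/G amine-coupled onto a CM4 sensor chip, with kinetic parameters derived using Biacore T200 Evaluation Software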
# Experimental: as §1
# human IL-8 [3] = target: T1, human IL-8; assay: SPR IL-8 binding level per 1000 RU captured Ab, pH 7.4, 40C; 1 week 50C in PBS vs initial
# T1 sequence (P10145 23-99 limits assumed): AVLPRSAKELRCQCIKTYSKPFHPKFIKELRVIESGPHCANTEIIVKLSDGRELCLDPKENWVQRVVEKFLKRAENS
binder,measurement,setting,value
B1,Kd,human IL-8 [1],0.34 nM
same,Kd,human IL-8 [2],140 nM
same,koff,human IL-8 [2],0.21 s⁻¹
same,Ratio of IL-8 Binding Amount (Thermal Acceleration/Initial),human IL-8 [3],0.49
